Measured values as given in article PMC4788496 (Chemistry & biology, 2015).

Molecular target: the molecule itself
Assay: SEC

B1: apoNC1 (heme-free DGCR8 construct NC1, a.a. 276-751) (domain or fragment, human, UniProt Q8WYQ5 276-751, looked up)
chain: DGETSVQPMMTKIKTVLKSRGRPPTEPLPDGWIMTFHNSGVPVYLHRESRVVTWSRPYFLGTGSIRKHDPPLSSIPCLHYKKMKDNEEREQSSDLTPSGDVSPVKPLSRSAELEFPLDEPDSMGADPGPPDEKDPLGAEAAPGALGQVKAKVEVCKDESVDLEEFRSYLEKRFDFEQVTVKKFRTWAERRQFNREMKRKQAESERPILPANQKLITLSVQDAPTKKEFVINPNGKSEVCILHEYMQRVLKVRPVYNFFECENPSEPFGASVTIDGVTYGSGTASSKKLAKNKAARATLEILIPDFVKQTSEEKPKDSEELEYFNHISIEDSRVYELTSKAGLLSPYQILHECLKRNHGMGDTSIKFEVVPGKNQKSEYVMACGKHTVRGWCKNKRVGKQLASQKILQLLHPHVKNWGSLLRMYGRESSKMVKQETSDKSVIELQQYAKKNKPNLHILSKLQEEMKRLAEEREETRK
binding result: binds
